# Data from patent publication US11312769B2, “Anti-TMEFF1 antibodies and antibody drug conjugates” (Bluefin BioMedicine, Inc., priority 2017, dated 2022).
# T1: recombinant TMEFF1 (Homo sapiens, UniProt Q8IYR6)
# T1 construct: generated to secrete the ECD from CHO cells to assist with biophysical evaluations; His tag (C); made in house; host or cells: CHO (ExpiCHO)
# T1 sequence (Q8IYR6 40-330 limits assumed): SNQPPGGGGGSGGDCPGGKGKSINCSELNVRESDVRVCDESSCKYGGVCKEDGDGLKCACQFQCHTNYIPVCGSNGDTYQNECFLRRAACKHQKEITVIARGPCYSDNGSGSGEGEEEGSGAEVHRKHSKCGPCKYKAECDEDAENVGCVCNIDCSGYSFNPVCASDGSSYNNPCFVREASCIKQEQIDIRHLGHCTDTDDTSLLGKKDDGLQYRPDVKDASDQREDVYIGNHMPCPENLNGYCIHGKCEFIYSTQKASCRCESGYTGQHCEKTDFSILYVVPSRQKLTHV
# Columns and labels:
# [1] = tested on: hTMEFF1-ECD recombinant deletion mutants; test: Binding domain determination with hTMEFF1-ECD deletion mutants (Octet); parameters: species or system human; key: FS1—follistatin domain 1; FS2—follistatin domain 2; details: full length TMEFF1 ECD vs ΔFS1, ΔFS2, ΔFS1&FS2
# Excerpt: TMEFF1 recombinant proteins expressing 3 different deletion mutants, AFS1 (AFollistatin Domain 1), AFS2 (AFollistatin Domain 2) or AFS1&FS2 were used to identify binding domains among different antibodes using an Octet Red instrument with Anti-Penta-His (HIS 1K) biosensors. Expression of the 3 deletion mutants was confirmed by WB analysis. 100 ngs of purified TMEFF1 ECD was run along with unpurified supernatant of transfected CHO cells with the different deletion mutants. HIS 1K biosensors were loaded by submerging the biosensors into wells containing 10 ug/ml of full length TMEFF1 or one of 3 different deletion mutants (AFS1, AFS2 or AFS1&FS2) for 60 seconds. Following the loading step, the biosensors were then dipped for 30 seconds in PBS before immersion for 30 seconds in 200 ul of unpurified recombinant antibodies for 30 seconds. The biosensors were then dipped briefly (30 seconds) in PBS to observe any dissociation. Samples were determined to show binding or no binding by comparing to a control well that contained no recombinant antibody. Differential binding to the deletion mutants allowed for determination of binding sites on TMEFF1 recombinant protein. For cases where the antibody bound all 3 recombinant proteins, the binding is outside of the deleted domains. For the case where binding is observed only on full length TMEFF1 and AFS2, the antibody is binding in the ΔFS1 domain.
# 26 of the identified antibodies were checked for epitope domain binding by Octet™ using the hTMEFF1-ECD recombinant deletion mutants (see Table 7, below).
# recombinant TMEFF1 = molecular target: T1, recombinant TMEFF1; test: Binding competition binning (Octet); details: seven antibodies, 3 bins
# Protocol: Binding competition among different antibodies was determined using a real-time, interferometry assay on an Octet Red™ instrument with Protein A-conjugated biosensors. To assess whether two antibodies competed for binding to a recombinant TMEFF1 protein, the assay was performed as follows. Protein A biosensors were first submerged into wells containing 10 ug/mL of individual monoclonal antibodies for 5 minutes. Following the capture step, the biosensors were dipped briefly (15 seconds) into buffer and then any unoccupied sites on the biosensor were saturated by submerging them for 5 minutes into wells containing 100 ug/mL of an irrelevant monoclonal antibody. The Octet biosensors were then dipped briefly (15 seconds) in buffer before immersion for 1 minute into wells containing recombinant TMEFF1. The biosensors were dipped briefly (15 seconds) in buffer before immersion for 1 minute into wells containing a second recombinant antibody.
# For the control case where the second antibody was the same as the first, there was no increase in signal, because there was no additional binding to the recombinant target.
# For the control case where buffer was used instead of the first antibody, no recombinant target bound the non-quenching antibody on the biosensor and no second antibody bound the biosensor.
# Competition binning using Octet™ was done with seven antibodies and 3 separate bins were identified.
Binding region (epitope domain binding) [1],Molecule,Competition binning (epitope bin) (recombinant TMEFF1)
FS1,"10C10: human anti-TMEFF1 IgG1 antibody; VH SEQ ID NO: 96, VL SEQ ID NO: 93 (antibody, V domains shown) VH: QVQLVESGGGVVQPGRSLRLSCATSGFTFSIYGMHWVRQAPGKGLEWVAIIWYDGNKKYYADSVKGRFTISRDNSKNTLYLQMNSLRAEDTAVYYCARDPYTSSLDYWGQGTLVTVSS VL: DIQLTQSPSFLSASVGDRVTITCRASQGISSYLAWYQQKPGKAPKLLIYAASTLQSGVPSRFSGSGSGTEFTLTISSLQPEDFATYYCQQLNSYPLTFGGGTKLEIK",–
FS1,"18C2: human anti-TMEFF1 IgG1 antibody; VH SEQ ID NO: 89, VL SEQ ID NO: 93 (antibody, V domains shown) VH: QVQLVESGGGVVQPGRSLRLSCAASGFTFSIYGMHWVRQAPGMGLEWVAIIRYDGSNKYYADSVKGRFTISRDNSKNTLYLRMNSLRAEDTAVYYCARDPFTSSLDYWGQGTLVTVSS VL: DIQLTQSPSFLSASVGDRVTITCRASQGISSYLAWYQQKPGKAPKLLIYAASTLQSGVPSRFSGSGSGTEFTLTISSLQPEDFATYYCQQLNSYPLTFGGGTKLEIK",–
FS1,"19D9: human anti-TMEFF1 IgG1 antibody; VH SEQ ID NO: 99, VL SEQ ID NO: 101 (antibody, V domains shown) VH: QVQLVESGGGVVQPGRSLRLSCAASGFTFSIYGMHWVRQAPGKGLEWVANIWYDGSKKYYADSVKGRFTISRDNSKNTLYLQMNSLRAEDTSVYYCARDPYTSSLDYWGQGTLVTVSS VL: DIQLTQSPSFLSASVGDRVTITCRASQGISSYLAWYQQKPGKAPKLLIYTASTLQSGVPSRFSGSGSGTEFTLTISSLQPEDFATYYCQQLNSYPLTFGGGTKLEIK",–
FS1,"29C4: human anti-TMEFF1 IgG1 antibody; VH SEQ ID NO: 118, VL SEQ ID NO: 122 (antibody, V domains shown) VH: QVQLVESGGGVVQPGRSLRLSCAASGFTFSNYGMHWVRQAPGKGLEWVAVIWYDGGPKFYADSVKGRFTISRDNSKNTLYLQMNSLRAEDTAVYYCARSYCGGDCYPFDYWGQGDLVTVSS VL: DIQMTQSPSSLSASVGDRVTITCRASQGISNYLAWYQQKPGKVPKLLIYAASTLQSGVPSRFSGSGSGTDFTLTISSLQPEDVATYYCQKYYSAPWTFGQGTKVEIK",–
FS1,"35B1: human anti-TMEFF1 IgG1 antibody; VH SEQ ID NO: 66, VL SEQ ID NO: 70 (antibody, V domains shown) VH: QVQLVESGGGVVQPGRSLRLSCAASGFTFTTYGMHWVRQAPGKGLEWVAVVWFEGNSKFYIDSVKGRFIISRDNSKNTLFLQMNSLRAEDTAVYYCARANCGADCYPFDYWGQGTLVTVSS VL: DIQMTQSPSSLSASVGDRVTITCRASQGISNYLAWYQQKPGKVPKLLIYAASTLQSGVPSRFSGSGSGTDFSLTISSLRPEDVATYYCQKYNSAPWTFGQGTKVEIK",–
FS1,"37G7: human anti-TMEFF1 IgG1 antibody; VH SEQ ID NO: 85, VL SEQ ID NO: 88 (antibody, V domains shown) VH: QVQLVESGGGVVQPGRSLRLSCAASGFTFTSYGMHWVRQAPGKGLEWVAVVWYEGSSKFYVDSVKGRFIISRDNSKNTLYLQMNSLRAEDTAVYYCARAYCGGDCYPFDYWGQGTLVTVSS VL: DIQMTQSPSSLSASVGDRVTITCRASQGISNYLAWYQQKPGKVPKLLIYAASTLQSGVPSRFSGSGSGTDFTLTISSLQPEDVATYYCQKYNSAPWTFGQGTKVEIK",–
FS1,"M17: human anti-TMEFF1 IgG1 antibody; VH SEQ ID NO: 79, VL SEQ ID NO: 82 (antibody, V domains shown) VH: QVQLVESGGGVVQPGRSLRLSCAASGFTFRSYGMHWVRQAPGKGLEWVALIWYDGGDQYYADSVKGRFTISRDSSKSTLYLQMNSLRAEDTAVYYCARAQCGDDCYPFDYWGQGTLVTVSS VL: DIQMTQSPSSLSASVGDRVTITCRASQGIYNYLAWYQQKPGKVPKLLIYAASTLQSGVPSRFSGSGSGTDFTLTISSLQPEDVATYYCQKYNSDPWTFGQGTKLEIK",–
Other,"M1F1: human anti-TMEFF1 IgG1 antibody; VH SEQ ID NO: 9, VL SEQ ID NO: 13 (antibody, V domains shown) VH: QVQLQESGPGLVKPSETLSLTCAVSGYSISSGYFWGWIRQPPGKKLEWIGSIYHSGSTYYNPSLKSRVTMSVDTSKNQFSLKLSSVTAADTAVYYCAREGDCSGGICYWYFDLWGRGTLVTVSS VL: EIVMTQSPATLSVSPGERATLSCRASQSVSSNLAWYQQKPGQAPRLLIYGASTRATGIPARFSGSGSGTEVTLTISSLQSEDFAVYYCQQYNKWPLTFGGGTKVEIK",bind a region different from FS1 or FS2 and compete with each other
other,"M1H1: human anti-TMEFF1 IgG1 antibody; VH SEQ ID NO: 9, VL SEQ ID NO: 78 (antibody, V domains shown) VH: QVQLQESGPGLVKPSETLSLTCAVSGYSISSGYFWGWIRQPPGKKLEWIGSIYHSGSTYYNPSLKSRVTMSVDTSKNQFSLKLSSVTAADTAVYYCAREGDCSGGICYWYFDLWGRGTLVTVSS VL: DIQMTQSPSSLSASVGDRVTITCRASQGISNYLAWYQQKPGKVPKLLIYAASTLQSGVPSRFSGSGSGTDFTLTISSLQPEDFAVYYCQQYNKWPLTFGGGTKLEIK",–
other,"M33F: human anti-TMEFF1 IgG1 antibody; VH SEQ ID NO: 9, VL SEQ ID NO: 141 (antibody, V domains shown) VH: QVQLQESGPGLVKPSETLSLTCAVSGYSISSGYFWGWIRQPPGKKLEWIGSIYHSGSTYYNPSLKSRVTMSVDTSKNQFSLKLSSVTAADTAVYYCAREGDCSGGICYWYFDLWGRGTLVTVSS VL: DIQMTQSPSSLSASVGDRVTITCRASQGISNYLAWYQQKPGKVPKLLIYAASTLQSGVPSRFSGSGSGTEVTLTISSLQSEDFAVYYCQQYNKWPLTFGGGTKLEIK",–
other,"3H9: human anti-TMEFF1 IgG1 antibody; VH SEQ ID NO: 114, VL SEQ ID NO: 117 (antibody, V domains shown) VH: EVQLVESGGGLVKPGGSLRLSCAASGFVFSYAWMNWVRQAPGKGLEWVGRIKSKTEGGTTDNAAPVKGRFTISREDSKNTLYLQLNSLKIEDTAVYYCTTGRIAAAGFDYWGQGTLVTVSS VL: DAVVTQESALTTSPGETVTLTCRSSTGTVTTSNYANWVQEKPDHLFTGLIAGTNNRAPGVPARFSGSLIGDKAALTITGAQTEDEAIYFCALWYSNHWVFGGGTKLTVLG",–
other,"11F9: human anti-TMEFF1 IgG1 antibody; VH SEQ ID NO: 71, VL SEQ ID NO: 75 (antibody, V domains shown) VH: EVQLVESGGGLVKPGGSLRLSCAASGFTFSYAWMSWVRQAPGKGLEWVGRIKSKTDGGTTDYAAPVKGRFTISRDDSKNTLYLQLNSLKIEDTAVYYCTTGRIAAAGFDYWAQGTLVTVSS VL: DAVVTQESALTTSPGETVTLTCRSSTGTVTTSNYANWVQEKPDHLFTGLIAGTNNRAPGVPARFSGSLIGDKAVLTITGAQTEDEAIYFCALWYSNHWVFGGGTKLTVLG",–
FS1,"M35: human anti-TMEFF1 IgG1 antibody; VH SEQ ID NO: 134, VL SEQ ID NO: 138 (antibody, V domains shown) VH: QVQLQESGPGLVKPSGTLSLTCAVSGGSISSSNWWSWVRQPPGKGLEWIGEIYHSGSTNYNPSLKSRVTISVDKSKNQFSLKLSSVTAADTAVYYCATMVRGRYYYYGMDVWGQGTTVTVSS VL: DIVMTQSPLSLPVTPGEPASISCRSSQSLLHSDGYNFLDWYLQKPGQSPQFLIYLGSNRASGVPDRFSGVGSGTDFTLQISRVEAEDFGVYYCMQALQAPWTFGQGTKLEIK",–
